Results reported in patent publication US20230340151A1 (Pfizer, published 2023).
Positions count from the first letter of the chain named.

How the values were obtained:
Assay in all cases: flow cytometry on cells displaying the construct
[1] = biological target: T1, CID1881 (human-chicken GUCY2c chimera) (human/chicken)
T1 chain: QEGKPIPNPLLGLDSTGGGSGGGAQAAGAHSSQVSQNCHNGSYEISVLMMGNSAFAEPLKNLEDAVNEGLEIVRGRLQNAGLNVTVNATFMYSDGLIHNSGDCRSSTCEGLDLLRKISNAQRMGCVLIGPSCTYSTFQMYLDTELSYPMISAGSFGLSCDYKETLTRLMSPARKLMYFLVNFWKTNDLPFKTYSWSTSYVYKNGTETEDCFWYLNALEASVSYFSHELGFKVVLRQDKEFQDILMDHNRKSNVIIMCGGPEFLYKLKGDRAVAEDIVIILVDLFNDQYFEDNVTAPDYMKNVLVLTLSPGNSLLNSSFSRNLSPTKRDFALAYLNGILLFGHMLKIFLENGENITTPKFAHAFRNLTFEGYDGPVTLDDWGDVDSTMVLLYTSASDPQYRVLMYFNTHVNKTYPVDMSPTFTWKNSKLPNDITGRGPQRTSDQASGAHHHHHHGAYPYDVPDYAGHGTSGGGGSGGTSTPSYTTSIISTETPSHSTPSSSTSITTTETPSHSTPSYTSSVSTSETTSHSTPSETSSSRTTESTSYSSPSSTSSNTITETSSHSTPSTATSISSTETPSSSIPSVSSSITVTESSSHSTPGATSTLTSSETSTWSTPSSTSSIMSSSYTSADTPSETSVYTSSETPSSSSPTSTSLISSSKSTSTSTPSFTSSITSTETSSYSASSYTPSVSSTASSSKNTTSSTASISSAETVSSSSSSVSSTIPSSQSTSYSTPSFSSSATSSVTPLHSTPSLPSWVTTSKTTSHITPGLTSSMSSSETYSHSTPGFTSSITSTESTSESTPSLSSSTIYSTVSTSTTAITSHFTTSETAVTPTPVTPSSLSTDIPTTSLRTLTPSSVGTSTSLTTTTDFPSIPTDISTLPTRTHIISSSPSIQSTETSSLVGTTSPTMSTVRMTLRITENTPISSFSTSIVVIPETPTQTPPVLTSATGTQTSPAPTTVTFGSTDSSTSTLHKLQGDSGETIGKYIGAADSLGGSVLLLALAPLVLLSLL

[2] = biological target: T2, CID1940 (reverse chimera, chicken GUCY2c with human residues) (chicken/human)
T2 chain: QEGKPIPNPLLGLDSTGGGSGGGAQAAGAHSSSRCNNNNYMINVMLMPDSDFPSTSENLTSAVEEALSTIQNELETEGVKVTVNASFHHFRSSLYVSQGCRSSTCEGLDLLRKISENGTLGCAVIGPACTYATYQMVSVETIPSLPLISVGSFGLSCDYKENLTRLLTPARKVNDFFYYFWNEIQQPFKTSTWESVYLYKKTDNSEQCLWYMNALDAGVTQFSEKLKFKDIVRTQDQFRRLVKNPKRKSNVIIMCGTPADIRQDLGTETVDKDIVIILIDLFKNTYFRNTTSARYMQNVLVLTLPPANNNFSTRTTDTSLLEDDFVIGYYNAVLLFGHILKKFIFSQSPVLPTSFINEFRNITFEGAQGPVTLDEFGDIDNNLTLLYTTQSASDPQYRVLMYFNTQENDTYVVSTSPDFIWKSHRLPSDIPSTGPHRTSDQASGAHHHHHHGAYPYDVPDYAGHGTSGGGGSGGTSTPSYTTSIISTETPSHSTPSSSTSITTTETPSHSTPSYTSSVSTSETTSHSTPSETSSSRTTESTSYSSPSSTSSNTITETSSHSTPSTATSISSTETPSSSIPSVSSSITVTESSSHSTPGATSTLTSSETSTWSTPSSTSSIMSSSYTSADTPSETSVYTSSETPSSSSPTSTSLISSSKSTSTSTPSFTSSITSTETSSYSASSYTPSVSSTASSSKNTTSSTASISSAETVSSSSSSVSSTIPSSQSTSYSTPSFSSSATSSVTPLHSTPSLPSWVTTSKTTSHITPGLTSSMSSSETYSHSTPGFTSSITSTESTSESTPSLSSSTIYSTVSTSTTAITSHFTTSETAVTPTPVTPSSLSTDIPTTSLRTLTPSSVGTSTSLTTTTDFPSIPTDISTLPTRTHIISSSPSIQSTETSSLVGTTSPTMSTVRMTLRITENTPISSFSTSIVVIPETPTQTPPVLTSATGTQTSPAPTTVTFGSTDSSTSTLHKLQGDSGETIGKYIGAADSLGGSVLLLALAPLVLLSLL

[3] = biological target: T3, CID1939 (reverse chimera, chicken GUCY2c with human residues) (chicken/human)
T3 chain: T2 chain with E116N, N117A, G118Q, T119R, L120M

[4] = biological target: CID1948 (human GUCY2c point mutant) (human)

Measured: binding result

B1: GUCY2C-1608 (bispecific antibody)
chain 1: DIQLTQSPSSLSASVGDRVTITCRASESVDYYGSSLLQWYQQKPGKAPKLLIYAASKLASGVPSRFSGSGSGTDFTLTISSLQPEDFATYYCQQTRKAYTFGQGTKLEIKGGGSGGGGEVQLVESGGGLVQPGGSLRLSCAASGFTFSDYYMTWVRQAPGKGLEWVAFIRNQARGYTSDHNPSVKGRFTISRDNAKNSLYLQMNSLRAEDTAVYYCARDRPSYYVLDYWGQGTTVTVSSGCPPCPAPEAAGAPSVFLFPPKPKDTLMISRTPEVTCVVVDVSHEDPEVKFNWYVDGVEVHNAKTKPREEQYNSTYRVVSVLTVLHQDWLNGKEYKCKVSNKALPAPIEKTISKAKGQPREPQVCTLPPSREEMTKNQVSLWCLVKGFYPSDIAVEWESNGQPENNYKTTPPVLDSDGSFFLYSKLTVDKSRWQQGNVFSCSVMHEALHNHYTQKSLSLSPG
chain 2: DIQMTQSPSSLSASVGDRVTITCTSSQSLFNVRSQKNYLAWYQQKPGKAPKLLIYWASTRESGVPSRFSGSGSGTDFTLTISSLQPEDFATYYCKQSYDLFTFGGGTKVEIKGGGGSGGGGEVQLVESGGGLVQPGGSLRLSCAASGFTFSSYWMHWVRQAPGKGLEWIGEIKPSNELTNVHEKFKDRFTISVDKAKNSAYLQMNSLRAEDTAVYYCTRTITTTEGYWFFDVWGQGTLVTVSSGCPPCPAPEAAGAPSVFLFPPKPKDTLMISRTPEVTCVVVDVSHEDPEVKFNWYVDGVEVHNAKTKPREEQYNSTYRVVSVLTVLHQDWLNGKEYKCKVSNKALPAPIEKTISKAKGQPREPQVYTLPPCREEMTKNQVSLSCAVKGFYPSDIAVEWESNGQPENNYKTTPPVLDSDGSFFLVSKLTVDKSRWQQGNVFSCSVMHEALHNHYTQKSLSLSPG
notes: also called GUCY2c CD3 bispecific
binds: [1] | [2] | [3] | [4]
